# Results taken from US6489293.
# Target: T1, erythropoietin receptor on intact mouse spleen cells (mouse) (UniProt P14753)
# T1 sequence (looked up): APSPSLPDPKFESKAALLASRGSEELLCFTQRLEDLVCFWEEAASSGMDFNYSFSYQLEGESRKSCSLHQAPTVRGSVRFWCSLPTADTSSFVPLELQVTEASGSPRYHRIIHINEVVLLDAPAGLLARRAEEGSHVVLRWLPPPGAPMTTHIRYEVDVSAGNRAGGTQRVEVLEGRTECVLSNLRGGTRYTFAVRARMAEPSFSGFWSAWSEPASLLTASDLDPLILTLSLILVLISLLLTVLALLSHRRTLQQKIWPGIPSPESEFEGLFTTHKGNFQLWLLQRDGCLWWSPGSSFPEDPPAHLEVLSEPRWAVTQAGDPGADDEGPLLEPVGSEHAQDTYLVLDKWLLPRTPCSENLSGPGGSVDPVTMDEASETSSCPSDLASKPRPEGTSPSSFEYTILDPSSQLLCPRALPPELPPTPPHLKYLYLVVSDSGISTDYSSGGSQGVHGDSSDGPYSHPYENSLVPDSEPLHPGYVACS
# Assay: cell-based or functional assay
Substance,"SPECIFIC ACTIVITY (Krystal bioassay units per microgram by RIA, percent of wildtype erythropoietin), first set of experiments","SPECIFIC ACTIVITY (Krystal bioassay units per microgram by RIA, percent of wildtype erythropoietin), second set of experiments",reduction in activity below wildtype human recombinant erythropoietin (Krystal bioassay)
erythropoietin mutant R103A (from UniProt P01588 28-193) (ligand),0%,0%,1000 fold
erythropoietin mutant R103K (from UniProt P01588 28-193) (ligand),10.2%,25%,–
erythropoietin mutant R103Q (from UniProt P01588 28-193) (ligand),0%,0%,1000 fold
erythropoietin mutant R103N (from UniProt P01588 28-193) (ligand),0%,0%,1000 fold
erythropoietin mutant R103E (from UniProt P01588 28-193) (ligand),0%,0%,1000 fold
erythropoietin mutant R103L (from UniProt P01588 28-193) (ligand),0%,0.4%,–
erythropoietin mutant L102A (from UniProt P01588 28-193) (ligand),93.3%,–,–

# Now from value to substance:
"SPECIFIC ACTIVITY (Krystal bioassay units per microgram by RIA, percent of wildtype erythropoietin), first set of experiments","SPECIFIC ACTIVITY (Krystal bioassay units per microgram by RIA, percent of wildtype erythropoietin), second set of experiments",reduction in activity below wildtype human recombinant erythropoietin (Krystal bioassay),Substance
36.9%,–,–,erythropoietin mutant L108A (from UniProt P01588 28-193) (ligand)
0%,–,–,erythropoietin mutant R103H (from UniProt P01588 28-193) (ligand)
0%,0%,1000 fold,erythropoietin mutant R103D (from UniProt P01588 28-193) (ligand)
